The values that follow come from patent US20180155451A1 (published 2018).

Test [1] deals with T1, FcγRIIa R (human, UniProt P12318 34-217).
T1 construct: extracellular domain; also called FcgRIIa R type; 2aR
T1 sequence (looked up): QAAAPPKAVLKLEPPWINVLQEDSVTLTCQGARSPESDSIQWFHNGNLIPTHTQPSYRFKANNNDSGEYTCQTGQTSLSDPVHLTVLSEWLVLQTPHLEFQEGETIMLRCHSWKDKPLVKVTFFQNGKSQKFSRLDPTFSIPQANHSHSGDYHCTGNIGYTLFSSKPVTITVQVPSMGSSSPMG
Description: SPR (Biacore), antibody captured, FcγR as analyte; relative binding. As to the method:
(§1) The heterodimerized antibodies He Abs in which one of the H chains was introduced with an alteration were assayed for their binding activities to each activating FcγR and inhibitory FcγR according to the method described in Example 4. […] The activating FcγRs in FIGS. 26, 27, 28, and 29 are FcγRIa, FcγRIIa (R), FcγRIIa (H), and FcγRIIIa, respectively.
(§2) Analysis of interaction between objective antibody and the FcγR was carried out using Biacore T100 (GE Healthcare). HBS-EP+ (GE Healthcare) was used as the running buffer, and the measurement temperature was set to 25° C. Chips produced by immobilizing the antigen peptide by the amine coupling method to a Series S Sencor Chip CM5 (GE Healthcare), or alternatively, chips produced by allowing preliminarily biotinylated antigen peptides to interact with and immobilize onto a Series S Sensor Chip SA (certified) (GE Healthcare) were used. Antibodies of interest were captured onto an antigen peptide-immobilized chip, and allowed to interact to each FcγR diluted with running buffer. To regenerate and repeatedly use the chip, the antibodies captured on the chip were washed off by reacting 10 mM glycine-HCl, pH 1.5.

Test [2] addresses T2, FcγRIIb (human, UniProt P31994 43-217).
T2 construct: extracellular domain; also called FcgRIIb; 2b
T2 sequence (looked up): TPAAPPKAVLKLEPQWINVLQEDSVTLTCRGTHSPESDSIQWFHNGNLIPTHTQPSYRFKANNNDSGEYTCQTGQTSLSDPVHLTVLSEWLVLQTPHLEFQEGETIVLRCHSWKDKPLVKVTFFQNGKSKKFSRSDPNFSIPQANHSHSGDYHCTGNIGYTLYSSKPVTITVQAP
The description is as above. As to the method:
as §1, §2

The target of test [3] is T1, FcγRIIa R. Kind of test: SPR; He/Con_2aR divided by He/Con_2b (FcγRIIb as reference). As to the method: as §1, §2

B1: GpH7-A5/GpH7-B3 variant D265_16H/GpL16-k0 (antibody, human IgG1, kappa)
heavy 1: not shown
heavy 2: not shown
light: DIVMTQSPLSLPVTPGEPASISCQASESLVHSNRNTYLHWYLQKPGQSPQLLIYKVSNRFSGVPDRFSGSGSGTDFTLKISRVEAEDVGVYYCSQNTHVPPTFGQGTKVEIERTVAAPSVFIFPPSDEQLKSGTASVVCLLNNFYPREAKVQWKVDNALQSGNSQESVTEQDSKDSTYSLSSTLTLSKADYEKHKVYACEVTHQGLSSPVTKSFNRGEC
notes: heterodimerized antibody, mutation in the GpH7-B3 chain only; also called He Ab
For the molecule B1, in test [1], the “He/Con_2aR (IIaR binding)” value was 58 % of GpH7-A5/GpH7-B3/GpL16-k0 (=100). The “He/Con_2b (IIb binding)” value in test [2] was 38.3 % of GpH7-A5/GpH7-B3/GpL16-k0 (=100). Besides, the “IIaR/IIb (He_2aR/2b)” value in test [3] was found to be 1.51 ratio.

B2: GpH7-A5/GpH7-B3 variant E269_04F/GpL16-k0 (antibody, human IgG1, kappa)
heavy 1: not shown
heavy 2: not shown
light: DIVMTQSPLSLPVTPGEPASISCQASESLVHSNRNTYLHWYLQKPGQSPQLLIYKVSNRFSGVPDRFSGSGSGTDFTLKISRVEAEDVGVYYCSQNTHVPPTFGQGTKVEIERTVAAPSVFIFPPSDEQLKSGTASVVCLLNNFYPREAKVQWKVDNALQSGNSQESVTEQDSKDSTYSLSSTLTLSKADYEKHKVYACEVTHQGLSSPVTKSFNRGEC
notes: as for B1
In the case of B2, the “He/Con_2aR (IIaR binding)” value in test [1] was 58.2 % of GpH7-A5/GpH7-B3/GpL16-k0 (=100). In test [2], the “He/Con_2b (IIb binding)” value was 45 % of GpH7-A5/GpH7-B3/GpL16-k0 (=100). Besides, the “IIaR/IIb (He_2aR/2b)” value in test [3] was 1.29 ratio.

B3: GpH7-A5/GpH7-B3 variant E269_03V/GpL16-k0 (antibody, human IgG1, kappa)
heavy 1: not shown
heavy 2: not shown
light: DIVMTQSPLSLPVTPGEPASISCQASESLVHSNRNTYLHWYLQKPGQSPQLLIYKVSNRFSGVPDRFSGSGSGTDFTLKISRVEAEDVGVYYCSQNTHVPPTFGQGTKVEIERTVAAPSVFIFPPSDEQLKSGTASVVCLLNNFYPREAKVQWKVDNALQSGNSQESVTEQDSKDSTYSLSSTLTLSKADYEKHKVYACEVTHQGLSSPVTKSFNRGEC
notes: as for B1
With B3, the “He/Con_2aR (IIaR binding)” value in test [1] was 58.8 % of GpH7-A5/GpH7-B3/GpL16-k0 (=100). Further, in test [2], the “He/Con_2b (IIb binding)” value was 45.1 % of GpH7-A5/GpH7-B3/GpL16-k0 (=100). Also, the “IIaR/IIb (He_2aR/2b)” value in test [3] amounted to 1.3 ratio.

B4: GpH7-A5/GpH7-B3 variant D265_14T/GpL16-k0 (antibody, human IgG1, kappa)
heavy 1: not shown
heavy 2: not shown
light: DIVMTQSPLSLPVTPGEPASISCQASESLVHSNRNTYLHWYLQKPGQSPQLLIYKVSNRFSGVPDRFSGSGSGTDFTLKISRVEAEDVGVYYCSQNTHVPPTFGQGTKVEIERTVAAPSVFIFPPSDEQLKSGTASVVCLLNNFYPREAKVQWKVDNALQSGNSQESVTEQDSKDSTYSLSSTLTLSKADYEKHKVYACEVTHQGLSSPVTKSFNRGEC
notes: as for B1
For B4, in test [1], the “He/Con_2aR (IIaR binding)” value is 25.8 % of GpH7-A5/GpH7-B3/GpL16-k0 (=100). Further, the “He/Con_2b (IIb binding)” value in test [2] is 16 % of GpH7-A5/GpH7-B3/GpL16-k0 (=100). Moreover, the “IIaR/IIb (He_2aR/2b)” value in test [3] stood at 1.61 ratio.

B5: GpH7-A5/GpH7-B3 variant D265_13S/GpL16-k0 (antibody, human IgG1, kappa)
heavy 1: not shown
heavy 2: not shown
light: DIVMTQSPLSLPVTPGEPASISCQASESLVHSNRNTYLHWYLQKPGQSPQLLIYKVSNRFSGVPDRFSGSGSGTDFTLKISRVEAEDVGVYYCSQNTHVPPTFGQGTKVEIERTVAAPSVFIFPPSDEQLKSGTASVVCLLNNFYPREAKVQWKVDNALQSGNSQESVTEQDSKDSTYSLSSTLTLSKADYEKHKVYACEVTHQGLSSPVTKSFNRGEC
notes: as for B1
With B5, in test [1], the “He/Con_2aR (IIaR binding)” value was 20.5 % of GpH7-A5/GpH7-B3/GpL16-k0 (=100). Moreover, the “He/Con_2b (IIb binding)” value in test [2] is 11.3 % of GpH7-A5/GpH7-B3/GpL16-k0 (=100). Further, the “IIaR/IIb (He_2aR/2b)” value in test [3] amounted to 1.81 ratio.

B6: GpH7-A5/GpH7-B3 variant D265_19Q/GpL16-k0 (antibody, human IgG1, kappa)
heavy 1: not shown
heavy 2: not shown
light: DIVMTQSPLSLPVTPGEPASISCQASESLVHSNRNTYLHWYLQKPGQSPQLLIYKVSNRFSGVPDRFSGSGSGTDFTLKISRVEAEDVGVYYCSQNTHVPPTFGQGTKVEIERTVAAPSVFIFPPSDEQLKSGTASVVCLLNNFYPREAKVQWKVDNALQSGNSQESVTEQDSKDSTYSLSSTLTLSKADYEKHKVYACEVTHQGLSSPVTKSFNRGEC
notes: as for B1
As to B6, the “He/Con_2aR (IIaR binding)” value in test [1] was 54.8 % of GpH7-A5/GpH7-B3/GpL16-k0 (=100). For the same molecule, the “He/Con_2b (IIb binding)” value in test [2] was 33.4 % of GpH7-A5/GpH7-B3/GpL16-k0 (=100). Besides, the “IIaR/IIb (He_2aR/2b)” value in test [3] was 1.64 ratio.

B7: GpH7-A5/GpH7-B3 variant D265_11K/GpL16-k0 (antibody, human IgG1, kappa)
heavy 1: not shown
heavy 2: not shown
light: DIVMTQSPLSLPVTPGEPASISCQASESLVHSNRNTYLHWYLQKPGQSPQLLIYKVSNRFSGVPDRFSGSGSGTDFTLKISRVEAEDVGVYYCSQNTHVPPTFGQGTKVEIERTVAAPSVFIFPPSDEQLKSGTASVVCLLNNFYPREAKVQWKVDNALQSGNSQESVTEQDSKDSTYSLSSTLTLSKADYEKHKVYACEVTHQGLSSPVTKSFNRGEC
notes: as for B1
On to B7, for which, in test [1], the “He/Con_2aR (IIaR binding)” value was 33.7 % of GpH7-A5/GpH7-B3/GpL16-k0 (=100). The “He/Con_2b (IIb binding)” value in test [2] was 14.9 % of GpH7-A5/GpH7-B3/GpL16-k0 (=100). Besides, the “IIaR/IIb (He_2aR/2b)” value in test [3] was determined as 2.26 ratio.

B8: GpH7-A5/GpH7-B3 variant E269_06M/GpL16-k0 (antibody, human IgG1, kappa)
heavy 1: not shown
heavy 2: not shown
light: DIVMTQSPLSLPVTPGEPASISCQASESLVHSNRNTYLHWYLQKPGQSPQLLIYKVSNRFSGVPDRFSGSGSGTDFTLKISRVEAEDVGVYYCSQNTHVPPTFGQGTKVEIERTVAAPSVFIFPPSDEQLKSGTASVVCLLNNFYPREAKVQWKVDNALQSGNSQESVTEQDSKDSTYSLSSTLTLSKADYEKHKVYACEVTHQGLSSPVTKSFNRGEC
notes: as for B1
Take B8: the “He/Con_2aR (IIaR binding)” value in test [1] was 61.7 % of GpH7-A5/GpH7-B3/GpL16-k0 (=100). Also, in test [2], the “He/Con_2b (IIb binding)” value is 46.7 % of GpH7-A5/GpH7-B3/GpL16-k0 (=100). In addition, the “IIaR/IIb (He_2aR/2b)” value in test [3] stood at 1.32 ratio.
